Assay results: US20150328292A1, “CASPASE POLYPEPTIDES HAVING MODIFIED ACTIVITY AND USES THEREOF” (BELLICUM PHARMACEUTICALS, INC., priority 2014, published 2015)
Residue numbers refer to the chain shown, from its start. Names may count otherwise. “Also recorded” adds a separate entry of the source. Where a SMILES comes first, the peptide text is derived from it. The star is where a group is joined. Cbz = O=C(OCc1ccccc1)*; CH2F = FC*

Experiments:
[1] = test system: F-Casp9M.I.GFPhigh-transduced T cells; assay: annexin-V/7-AAD staining of CID-treated transduced CTLs; format: cell-based, human; details: 100 μM for 1 hour prior to adding CID
Experimental: CID (AP20187; ARIAD Pharmaceuticals) at indicated concentrations was added to transfected 293T cells or transduced CTLs. Adherent and nonadherent cells were harvested and washed with annexin binding buffer (BD Pharmingen, San Jose, Calif.). Cells were stained with annexin-V and 7-amino-actinomycin D (7-AAD) for 15 minutes according to the manufacturer's instructions (BD Pharmingen). Within 1 hour after staining, cells were analyzed by flow cytometry using CellQuest software (Becton Dickinson).

HEK293T/16 cells = assay: SEAP reporter-based surrogate killing assay (basal activity and AP1903 IC50); format: cell-based, human; details: for basal activity / basal signaling (in words): AP1903-independent SEAP activity, vs wild type; for relative SEAP activity Units (basal activity): no AP1903, higher SEAP = lower basal activity
Experimental: FIG. 45 provides a schematic of an analysis of SEAP assays. […] of the mixture was seeded onto each well of a 96-well plate. […] For the assay, 4-methylumbelliferyl phosphate substrate was hydrolyzed by SEAP to 4-methylumbelliferon, a metabolite that can be excited with 364 nm and detected with an emission filter of 448 nm. Since SEAP is used as a marker for cell viability, reduced SEAP reading corresponds with increased icaspase-9 activities.
Early passage HEK293T/16 cells (ATCC, Manassas, Va.) were maintained in IMDM, GlutaMAX™ (Life Technologies, Carlsbad, Calif.) supplemented with 10% FBS, 100 U/mL penicillin, and 100 […] until transfection in a humidified, 37° C., 5% CO2/95% air atmosphere. Cells in logarithmic-phase growth were transiently transfected with 800 ng to 2 μg of expression plasmid encoding iCasp9 mutants and 500 ng of an expression plasmid encoding SRα promoter driven SEAP per million cells in 15-mL conical tubes. […] GeneJammer® Transfection Reagent at a ratio of 3 μl per ug of plasmid DNA was used to transiently transfect HEK293T/16 cells in the absence of antibiotics. 100 μl or 2 mL of the transfection mixture was added to each well in 96-well or 6-well plate, respectively.
Briefly, after 65° C. heat denaturation for 45 minutes to reduce background caused by endogenous (and serum-derived) alkaline phosphatases that are sensitive to heat, 5 μl of supernatants was added to 95 μl of PBS and added to 100 μl of substrate buffer, containing 1 μl of 100 mM 4-methylumbelliferyl phosphate (4-MUP; Sigma, St. Louis, Mo.) re-suspended in 2 M diethanolamine. Hydrolysis of 4-MUP by SEAP produces a fluorescent […] with excitation/emission (355/460 nm), which can be easily measured. Assays were performed in black opaque 96-well plates to minimize fluorescence leakage between wells (FIG. 45).

human CD3+CD19+ T cells = assay: AP1903 dose-dependent elimination in vivo of transduced T cells in NSG mice; parameters: species or system mouse; details: NSG mice, AP1903 0-5 mg/kg i.p., spleen
Experimental: T cells were transduced with SFG-iCasp9-2A-ΔCD19 retrovirus and injected i.v. into immune deficient mice (NSG). […] After an additional 24 hours, mice were sacrificed and lymphocytes from the spleen (FIG. 61A) and peripheral blood (FIG. 61B) were isolated and analyzed by flow cytometry for the frequency of human CD3+CD19+ T cells.
T cells were transduced with SFG-iCasp9-D330E-2A-ΔCD19 retrovirus and injected i.v. into immune deficient mice (NSG). […] After an additional 24 hours, mice were sacrificed and lymphocytes from the spleen (A) were isolated and analyzed by flow cytometry for the frequency of human CD3+CD19+ T cells.

PG13 packaging cells = format: cell-based
Activated T cells = assay: Control of T cell proliferation in vitro over 10 days with AP1903; format: cell-based, human; details: AP1903 on days 0 and 4, 10 days

## COC(=O)C[C@H](NC(=O)[C@H](C)NC(=O)[C@@H](NC(=O)OCc1ccccc1)C(C)C)C(=O)CF [zVAD-fmk] (Cbz-Val-Ala-Asp(OMe)-CH2F)
[1]
  effect on CID-induced apoptosis: inhibited

B1: F319W: chimeric modified caspase-9 polypeptide variant (protein, UniProt P55211 1-416, looked up, variant F319W)
chain: MDEADRRLLRRCRLRLVEELQVDQLWDALLSRELFRPHMIEDIQRAGSGSRRDQARQLIIDLETRGSQALPLFISCLEDTGQDMLASFLRTNRQAAKLSKPTLENLTPVVLRPEIRKPEVLRPETPRPVDIGSGGFGDVGALESLRGNADLAYILSMEPCGHCLIINNVNFCRESGLRTRTGSNIDCEKLRRRFSSLHFMVEVKGDLTAKKMVLALLELAQQDHGALDCCVVVILSHGCQASHLQFPGAVYGTDGCPVSVEKIVNIFNGTSCPSLGGKPKLFFIQACGGEQKDHGFEVASTSPEDESPGSNPEPDATPWQEGLRTFDQLDAISSLPTPSDIFVSYSTFPGFVSWRDPKSGSWYVETLDDIFEQWAHSEDLQSLLLRVANAVSVKGIYKQMPGCFNFLRKKLFFKTS
modifications: chimeric, fused to FKBP12v36
notes: chimeric modified caspase-9 polypeptide variant
HEK293T/16 cells
  basal activity / basal signaling (in words): lower basal activity

B2: T317A: chimeric modified caspase-9 polypeptide variant (protein)
chain: VDGFGDVGALESLRGNADLAYILSMEPCGHCLIINNVNFCRESGLRTRTGSNIDCEKLRRRFSSLHFMVEVKGDLTAKKMVLALLELARQDHGALDCCVVVILSHGCQASHLQFPGAVYGTDGCPVSVEKIVNIFNGTSCPSLGGKPKLFFIQACGGEQKDHGFEVASTSPEDESPGSNPEPDAAPFQEGLRTFDQLDAISSLPTPSDIFVSYSTFPGFVSWRDPKSGSWYVETLDDIFEQWAHSEDLQSLLLRVANAVSVKGIYKQMPGCFNFLRKKLFFKTSASRA
HEK293T/16 cells
  basal activity / basal signaling (in words): lower basal activity; also recorded: reduce basal activity; also recorded: decrease in basal activity

B3: D330E: chimeric modified caspase-9 polypeptide variant (protein)
chain: B2 chain with A185T, D198E
Human CD3+CD19+ T cells
  in vivo cytotoxicity profile in response to AP1903: titratable in vivo
HEK293T/16 cells
  basal activity / basal signaling (in words): less basal activity than wild type caspase-9; also recorded: statistically lower basal signaling
PG13 packaging cells
  CD19 mean fluorescence intensity (MFI) of transduced PG13 cells: enhanced CD19 mean fluorescence intensity
  viral titers: higher viral titers

B4: D330V: chimeric modified caspase-9 polypeptide variant (protein)
chain: B2 chain with A185T, D198V
HEK293T/16 cells
  basal activity / basal signaling (in words): less basal activity than wild type caspase-9

B5: A316G: chimeric modified caspase-9 polypeptide variant (protein)
chain: B2 chain with A184G, A185T
HEK293T/16 cells
  basal activity / basal signaling (in words): lower basal activity

B6: F404W: chimeric modified caspase-9 polypeptide variant (protein)
chain: B2 chain with A185T, F272W
HEK293T/16 cells
  basal activity / basal signaling (in words): lower basal signaling than WT

B7: D330G: chimeric modified caspase-9 polypeptide variant (protein)
chain: B2 chain with A185T, D198G
HEK293T/16 cells
  basal activity / basal signaling (in words): less basal activity than wild type caspase-9

B8: F404Y: chimeric modified caspase-9 polypeptide variant (protein)
chain: B2 chain with A185T, F272Y
Activated T cells
  T cell proliferation and survival: indistinguishable from wild type caspase-9 polypeptide or D330A
HEK293T/16 cells
  basal activity / basal signaling (in words): lower basal signaling than WT

B9: S196D: chimeric modified caspase-9 polypeptide variant (protein)
chain: B2 chain with S64D, A185T
HEK293T/16 cells
  basal activity / basal signaling (in words): lower basal activity

B10: S183A: chimeric modified caspase-9 polypeptide variant (protein)
chain: B2 chain with S51A, A185T
HEK293T/16 cells
  basal activity / basal signaling (in words): lower basal activity

B11: D330S: chimeric modified caspase-9 polypeptide variant (protein)
chain: B2 chain with A185T, D198S
HEK293T/16 cells
  basal activity / basal signaling (in words): less basal activity than wild type caspase-9; also recorded: statistically lower basal signaling

B12: F406T: chimeric modified caspase-9 polypeptide variant (protein)
chain: B2 chain with A185T, F274T
HEK293T/16 cells
  basal activity / basal signaling (in words): lower basal signaling than WT

B13: D330N: chimeric modified caspase-9 polypeptide variant (protein)
chain: B2 chain with A185T, D198N
HEK293T/16 cells
  basal activity / basal signaling (in words): less basal activity than wild type caspase-9

B14: D330A: ΔCasp9 (res. 135-416) D330A, SEQ ID NO: 24 (protein)
chain: GFGDVGALESLRGNADLAYILSMEPCGHCLIINNVNFCRESGLRTRTGSNIDCEKLRRRFSSLHFMVEVKGDLTAKKMVLALLELARQDHGALDCCVVVILSHGCQASHLQFPGAVYGTDGCPVSVEKIVNIFNGTSCPSLGGKPKLFFIQACGGEQKDHGFEVASTSPEDESPGSNPEPDATPFQEGLRTFDQLAAISSLPTPSDIFVSYSTFPGFVSWRDPKSGSWYVETLDDIFEQWAHSEDLQSLLLRVANAVSVKGIYKQMPGCFNFLRKKLFFKTS
Activated T cells
  T cell proliferation and survival: halted T cell proliferation
HEK293T/16 cells; 1 μg iCasp9 per million cells
  relative SEAP activity Units (basal activity): 148928
HEK293T/16 cells; 2 μg iCasp9 per million cells
  relative SEAP activity Units (basal activity): 136863
HEK293T/16 cells
  basal activity / basal signaling (in words): low to undetectable basal activity; also recorded: lowered basal activity, but not as low as in N405Q; also recorded: less basal activity than wild type caspase-9; also recorded: lower basal activity; also recorded: lower basal signaling compared to the wild-type caspase-9; also recorded: statistically lower basal signaling
PG13 packaging cells
  CD19 mean fluorescence intensity (MFI) of transduced PG13 cells: enhanced CD19 mean fluorescence intensity
  viral titers: higher viral titers
